Values joined by “and” are separate entries in the source; they are usually repeats but may differ in a detail not shown here. Equal entries are not always repeated. Ends that are not written are not given here. Peptide text beside a SMILES is read from it. * marks the point of attachment. FITC = O=C1OC2(c3ccc(O)cc3Oc3cc(O)ccc32)c2ccc(NC(=S)*)cc21
B1: Pex5p wildtype, recombinant His6-tagged (HisPex5p) (natural protein, S. cerevisiae, UniProt P35056 1-612, looked up)
chain: MDVGSCSVGNNPLAQLHKHTQQNKSLQFNQKNNGRLNESPLQGTNKPGISEAFISNVNAISQENMANMQRFINGEPLIDDKRRMEIGPSSGRLPPFSNVHSLQTSANPTQIKGVNDISHWSQEFQGSNSIQNRNADTGNSEKAWQRGSTTASSRFQYPNTMMNNYAYASMNSLSGSRLQSPAFMNQQQSGRSKEGVNEQEQQPWTDQFEKLEKEVSENLDINDEIEKEENVSEVEQNKPETVEKEEGVYGDQYQSDFQEVWDSIHKDAEEVLPSELVNDDLNLGEDYLKYLGGRVNGNIEYAFQSNNEYFNNPNAYKIGCLLMENGAKLSEAALAFEAAVKEKPDHVDAWLRLGLVQTQNEKELNGISALEECLKLDPKNLEAMKTLAISYINEGYDMSAFTMLDKWAETKYPEIWSRIKQQDDKFQKEKGFTHIDMNAHITKQFLQLANNLSTIDPEIQLCLGLLFYTKDDFDKTIDCFESALRVNPNDELMWNRLGASLANSNRSEEAIQAYHRALQLKPSFVRARYNLAVSSMNIGCFKEAAGYLLSVLSMHEVNTNNKKGDVGSLLNTYNDTVIETLKRVFIAMNRDDLLQEVKPGMDLKRFKGEFSF
notes: Pex5p, PTS1 receptor of Saccharomyces cerevisiae, UniProtKB P35056, full length; No cleavage of the His tag is described; the native MS mass of the monomer is printed as 71.459 kDa; also called Pex5p^WT; source: E. coli BL21 RIL (DE3), purified (Ni-NTA, MonoQ anion exchange, SEC)
B3: Pex5p-S507/523D, recombinant His6-tagged phospho-mimicking mutant (natural protein, S. cerevisiae, UniProt P35056 1-612, looked up)
chain: MDVGSCSVGNNPLAQLHKHTQQNKSLQFNQKNNGRLNESPLQGTNKPGISEAFISNVNAISQENMANMQRFINGEPLIDDKRRMEIGPSSGRLPPFSNVHSLQTSANPTQIKGVNDISHWSQEFQGSNSIQNRNADTGNSEKAWQRGSTTASSRFQYPNTMMNNYAYASMNSLSGSRLQSPAFMNQQQSGRSKEGVNEQEQQPWTDQFEKLEKEVSENLDINDEIEKEENVSEVEQNKPETVEKEEGVYGDQYQSDFQEVWDSIHKDAEEVLPSELVNDDLNLGEDYLKYLGGRVNGNIEYAFQSNNEYFNNPNAYKIGCLLMENGAKLSEAALAFEAAVKEKPDHVDAWLRLGLVQTQNEKELNGISALEECLKLDPKNLEAMKTLAISYINEGYDMSAFTMLDKWAETKYPEIWSRIKQQDDKFQKEKGFTHIDMNAHITKQFLQLANNLSTIDPEIQLCLGLLFYTKDDFDKTIDCFESALRVNPNDELMWNRLGASLANSNRDEEAIQAYHRALQLKPDFVRARYNLAVSSMNIGCFKEAAGYLLSVLSMHEVNTNNKKGDVGSLLNTYNDTVIETLKRVFIAMNRDDLLQEVKPGMDLKRFKGEFSF
notes: Pex5p, PTS1 receptor of Saccharomyces cerevisiae, UniProtKB P35056, full length, with S507D and S523D; No cleavage of the His tag is described; the native MS mass of the monomer is printed as 71.515 kDa; also called Pex5p^2D; Pex5p-S507D/523D; source: E. coli BL21 RIL (DE3), purified (Ni-NTA, MonoQ anion exchange, SEC)

Key:
[1] = molecular target: T1, Pex5p^2D (Saccharomyces cerevisiae, UniProt P35056, S507D/S523D); assay: biochemical; type: binding
T1 construct: 10 μM full-length Pex5p^WT and Pex5p^2D mutant as a sample in the cell; made in house; host or cells: E. coli BL21 RIL (DE3)
From the text: The elution of proteins was monitored at 280 nm.

[2] = molecular target: the molecule itself; assay: native MS; single purified proteins in 200 mM ammonium acetate pH 6.8; collision energy 100 V
[3] = molecular target: B1; assay: fluorescence polarisation; fluorescence anisotropy; 10 nM FITC-labelled Idp3p peptide, serial dilutions of Pex5p variant 160 nM to 38 µM; 50 mM HEPES pH 7.5, 150 mM NaCl; one-site binding-saturation fit; conditions: both partners purified
[4] = molecular target: B3; assay: ITC; MicroCal VP-ITC, 25 °C; 10 µM Pex5p variant in the cell, 100 µM Pcs60p as titration ligand, 30 injections of 10 µl; 50 mM HEPES pH 7.5, 150 mM NaCl; conditions: both partners purified
[5] = molecular target: B1; assay: as above; conditions: both partners purified
[6] = molecular target: T2, Pex5p-S507/523D, recombinant His6-tagged phospho-mimicking mutant (S. cerevisiae, UniProt P35056 1-612, S507D | S523D); assay: ITC; representative single titration
T2 sequence: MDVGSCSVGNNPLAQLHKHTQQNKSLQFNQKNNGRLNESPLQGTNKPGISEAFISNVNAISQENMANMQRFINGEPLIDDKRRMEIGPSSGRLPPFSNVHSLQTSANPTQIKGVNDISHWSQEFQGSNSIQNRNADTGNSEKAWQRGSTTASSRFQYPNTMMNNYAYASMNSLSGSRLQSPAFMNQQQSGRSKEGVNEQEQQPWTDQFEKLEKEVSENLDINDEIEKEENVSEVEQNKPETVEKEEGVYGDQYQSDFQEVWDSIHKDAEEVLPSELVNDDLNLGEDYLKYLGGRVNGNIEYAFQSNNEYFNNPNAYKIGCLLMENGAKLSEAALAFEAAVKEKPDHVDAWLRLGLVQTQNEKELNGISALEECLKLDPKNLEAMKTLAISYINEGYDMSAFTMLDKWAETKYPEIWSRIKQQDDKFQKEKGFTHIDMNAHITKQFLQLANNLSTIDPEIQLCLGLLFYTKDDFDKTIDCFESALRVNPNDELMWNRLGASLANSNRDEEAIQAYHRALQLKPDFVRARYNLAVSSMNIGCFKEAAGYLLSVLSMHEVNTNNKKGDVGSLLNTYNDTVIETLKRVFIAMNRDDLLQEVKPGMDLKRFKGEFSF

[7] = molecular target: T3, Pex5p wildtype, recombinant His6-tagged (HisPex5p) (S. cerevisiae, UniProt P35056 1-612); assay: ITC; representative single titration
T3 chain: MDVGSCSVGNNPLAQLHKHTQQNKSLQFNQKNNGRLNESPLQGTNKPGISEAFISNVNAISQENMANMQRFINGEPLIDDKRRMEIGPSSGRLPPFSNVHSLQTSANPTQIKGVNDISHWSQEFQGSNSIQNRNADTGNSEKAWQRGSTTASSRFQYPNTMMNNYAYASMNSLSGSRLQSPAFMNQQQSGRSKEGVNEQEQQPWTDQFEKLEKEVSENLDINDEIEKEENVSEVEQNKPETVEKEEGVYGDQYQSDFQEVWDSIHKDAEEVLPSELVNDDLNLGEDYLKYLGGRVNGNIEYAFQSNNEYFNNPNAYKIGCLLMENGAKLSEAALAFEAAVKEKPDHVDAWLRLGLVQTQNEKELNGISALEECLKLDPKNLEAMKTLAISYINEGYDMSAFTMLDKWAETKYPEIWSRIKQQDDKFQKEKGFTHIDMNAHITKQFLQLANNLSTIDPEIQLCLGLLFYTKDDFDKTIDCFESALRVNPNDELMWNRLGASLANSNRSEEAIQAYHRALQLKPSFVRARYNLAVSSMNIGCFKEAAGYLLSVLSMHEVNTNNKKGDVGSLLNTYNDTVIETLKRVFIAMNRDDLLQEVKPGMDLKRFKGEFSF

[8] = molecular target: B3; assay: native MS; Pex5p variant (7.5 µM) mixed with Pcs60p (5 µM), 5 min on ice; 200 mM ammonium acetate pH 6.8; collision energy 100 V; conditions: both partners purified
[9] = molecular target: B1; assay: as above; conditions: both partners purified

Question: For `CC(C)C[C@H](NC(=O)[C@H](CCCCN)NC(=O)[C@H](C)NC(=O)[C@H](CCCCN)NC(=O)[C@H](CCCNC(=N)N)NC(=O)[C@H](CCCCN)NC(=O)[C@H](CC(N)=O)NC(=O)[C@H](CCC(=O)O)NC(=O)[C@H](CC(N)=O)NC(=O)[C@H](Cc1ccc(O)cc1)NC(=S)Nc1ccc2c(c1)C(=O)OC21c2ccc(O)cc2Oc2cc(O)ccc21)C(=O)O` [Cat2p peptide] ({FITC}-YNENKRKAKL-OH), which Kd [1] is on record?
Answer: Its Kd is 897 nM.

Question: With `CC(C)C[C@H](NC(=O)[C@H](CCCNC(=N)N)NC(=O)[C@H](CO)NC(=O)[C@H](CO)NC(=O)[C@H](CCCNC(=N)N)NC(=O)[C@H](CCCCN)NC(=O)[C@@H](NC(=O)[C@H](CCCNC(=N)N)NC(=O)[C@H](C)NC(=O)[C@H](Cc1ccc(O)cc1)NC(=S)Nc1ccc2c(c1)C(=O)OC21c2ccc(O)cc2Oc2cc(O)ccc21)C(C)C)C(=O)O` [Lys1p peptide] ({FITC}-YARVKRSSRL-OH) as the molecule, how does the Kd [1] read?
Answer: Its Kd is 3690 ± 1580 nM.

Question: How did the “stoichiometry N” value [2] turn out when B1 was run?
Answer: Its value is 2.

B2: Idp3p nonapeptide, FITC-YNEDKKGMCKL (peptide)
chain: {FITC}-YNEDKKGMCKL
Question: For B2, which Kd [3] is on record?
Answer: The Kd was 5540 nM.

Question: For B3, which “stoichiometry N” value [2] is on record?
Answer: Its value is 2.

B4: Pcs60p, peroxisomal oxalyl-CoA synthetase, recombinant (natural protein, S. cerevisiae, UniProt P38137 1-543, looked up)
chain: MTSAATVTASFNDTFSVSDNVAVIVPETDTQVTYRDLSHMVGHFQTMFTNPNSPLYGAVFRQDTVAISMRNGLEFIVAFLGATMDAKIGAPLNPNYKEKEFNFYLNDLKSKAICVPKGTTKLQSSEILKSASTFGCFIVELAFDATRFRVEYDIYSPEDNYKRVIYRSLNNAKFVNTNPVKFPGFARSSDVALILHTSGTTSTPKTVPLLHLNIVRSTLNIANTYKLTPLDRSYVVMPLFHVHGLIGVLLSTFRTQGSVVVPDGFHPKLFWDQFVKYNCNWFSCVPTISMIMLNMPKPNPFPHIRFIRSCSSALAPATFHKLEKEFNAPVLEAYAMTEASHQMTSNNLPPGKRKPGTVGQPQGVTVVILDDNDNVLPPGKVGEVSIRGENVTLGYANNPKANKENFTKRENYFRTGDQGYFDPEGFLVLTGRIKELINRGGEKISPIELDGIMLSHPKIDEAVAFGVPDDMYGQVVQAAIVLKKGEKMTYEELVNFLKKHLASFKIPTKVYFVDKLPKTATGKIQRRVIAETFAKSSRNKSKL
notes: Pcs60p, peroxisomal oxalyl-CoA synthetase of S. cerevisiae, a PTS1-protein; GST tag removed with thrombin; native MS mass of the monomer printed as 60.632 kDa; also called wildtype Pcs60p; GSTPcs60p (before cleavage); source: E. coli BL21 RIL (DE3), purified (GSTrap, thrombin cleavage, SEC); not shown: GST, N-terminal, cleaved
Question: Which results are given for B4?
Answer: Kd [4]: 338 nM; Kd [5]: 17.4 nM; Kd [6]: 271 nM; Kd [7]: 13 nM; stoichiometry N [8]: 1 Pcs60p per Pex5p and 2 Pcs60p per Pex5p (1:2 receptor-cargo complex) and 1 Pcs60p per Pex5p (2:2 receptor-cargo complex); stoichiometry N [9]: 1 Pcs60p per Pex5p (2:2 receptor-cargo complex) and 1 Pcs60p per Pex5p and 2 Pcs60p per Pex5p (1:2 receptor-cargo complex)
